Assays:
[1] = OPTIMIZE-1 safety and tolerability (AEs, DLTs, RP2D; CTCAE v5.0); assay type: in vivo
Method: Two dose levels, 450 μg/kg and 900 μg/kg, of mitazalimab were planned to be administered in combination with mFOLFIRINOX in Part 1. During the first treatment cycle (the first 21 days) for each patient, mitazalimab was administered on Day 1 and Day 10 and mFOLFIRINOX infusion started on Day 8. During the following 14-day treatment cycles, mFOLFIRINOX was administered on Day 1 and mitazalimab on Day 3 of each cycle, see FIG. 3. In case the number of DLTs for a dose level fulfilled the stop criteria, see Table 3 Escalation rules based on number of patients with DLTs, at the lowest dose level of mitazalimab, the chemotherapy mFOLFIRINOX could be exchanged to the chemotherapy gemcitabine plus nab-paclitaxel, as illustrated in FIG. 2. If changing the chemotherapy from mFOLFIRINOX to gemcitabine plus nab-paclitaxel, see dosage schedule in Example 5.
The dose escalation in Part 1 follows a BOIN design with at least 3 evaluable patients per dose level. According to the BOIN design, each time a cohort of patients has been completed, a decision is made whether the next cohort should remain on the same dose, escalate to the next higher dose level or de-escalate to the next lower dose level, according to the decision rules presented in Table 3 below. A range of 3-9 patients was included at each dose level. In this study, the de-escalation from 450 μg/kg mitazalimab in combination with mFOLFIRINOX was a change of chemotherapy to gemcitabine plus nab-paclitaxel as previously described.
Mitazalimab in combination with mFOLFIRINOX: The DLT evaluation period is defined as the time from the first dose of mitazalimab (Day 1) until Day 21 in the first treatment cycle (Cycle 1). Mitazalimab in combination with gemcitabine plus nab-paclitaxel: The DLT evaluation period is defined as the time from the first dose of mitazalimab (Day 1) until Day 28 within the first treatment cycle of 35 days (Cycle 1). This period enabled the DRC to evaluate for early safety of mitazalimab together with the chemotherapy combination.
The same DLT criteria applied for mitazalimab in combination with mFOLFIRINOX and gemcitabine plus nab-paclitaxel. A DLT was considered related to study treatment unless there is a clear, well-documented, alternative explanation for the adverse event (AE). AEs that meet the above criteria but occur after the DLT evaluation period were not defined as DLTs, unless the onset of the event was during the DLT evaluation period. The event could be reported as AEs/Serious adverse events (SAEs), as applicable.
Number or patients experiencing AEs and number of events were summarized by SOC and preferred term. In addition, the following AEs were presented: • Incidence of DLT (Part 1); • AEs Grade 3 or higher; • Serious AEs; • AEs leading to discontinuation of study treatment; and • AEs leading to death.
The safety set comprised all patients that received any study treatment (mitazalimab) and was used for all endpoints related to the safety objectives.
The objective of the first (Phase 1b) part of the study was to determine the RP2D of mitazalimab+mFOLFIRINOX. Mitazalimab was escalated from 450 μg/kg to 900 μg/kg following a Bayesian optimal interval design with at least 3 patients enrolled per dose level. In the first 21-day treatment cycle (Dose Limiting Toxicity assessment period), mitazalimab was administered intravenously on days 1 and 10 and mFOLFIRINOX starts on day 8. In the second and subsequent cycles, treatment followed a 14-day cycle schedule where mitazalimab was administered 2 days after mFOLFIRINOX.

[2] = system: whole blood transcriptome; assay: RNA-sequencing of peripheral whole blood of MB49 tumour-bearing hCD40tg mice; assay type: in vivo, mouse; conditions: for Differentially expressed genes, p. adj < 0.05 / Differentially expressed genes, p. adj < 0.05 & FC > 2: of 14485 total genes
Text: Peripheral blood was collected from the mice at the end of the first cycle and subjected to RNA-sequencing to identify pharmacodynamic biomarkers. RNA was extracted from whole blood after red blood cell lysis using GLOBINclear™ Kit, mouse/rat (AM1981, Invitrogen), and Mouse RiboPure™-Blood RNA Isolation Kit (AM1951, Invitrogen) according to the manufacturer's instruction. Purified RNA was stored in RNase-free microfuge tubes (AM12425, Invitrogen), and frozen at −80 C until further use.
RNA library preparation and sequencing was performed by the Center for Translational Genomics (CTG, Lund University). RNA integrity was analyzed with the TapeStation 4200 (Agilent Technologies), using Agilent RNA ScreenTape and reagents (5067-5576, 5067-5577, Agilent Technologies). RNA concentration was analyzed with the Qubit Flex (Q33327 Invitrogen Thermo Fisher Scientific), using the QuantIT RNA HS Assay Kit (Q33140, Life Technologies). cDNA sequencing libraries were prepared using TruSeq® Stranded mRNA Library Prep kit (20020594, Illumina). The libraries were sequenced in a NovaSeq 6000 System (20012850, Illumina), using the NovaSeq 6000 SP Reagent Kit, 300 cycles v1.5 20028400). The reads were aligned to the mouse reference genome GRCm38 (mm10) using the STAR software (v 2.5.0a.13).
R (v4.0.3) and R studio (v1.4.1103) were used to perform quality control and thresholding, normalization, dimensionality reduction, and visualization as well as differential gene expression analysis. Protein coding genes with a minimum of 5 reads in 3 or more samples were kept for analysis. For data visualization, filtered raw counts were normalized using the variance-stabilizing-transformation method in the DESeq2 package (version 1.38.3).
Principal component analysis (PCA) was used to visualize the data, and assess the effects of the treatment at transcriptomic level.
To identify differentially expressed genes among treatment groups, filtered raw counts were normalized using the median of ratios method in the DESeq2 package. Treatment groups were compared using the negative binomial Wald's test (adjusted-p.value [adj-p.val]<0.05, fold change>2).
Pathway enrichment analysis was performed using EnrichR (v3.0) by querying differentially expressed genes among treatment groups onto the gene ontology database (GO, GO_bioprocess_2018). Re-occurring and highly ranked pathways (adj.p-value<0.05) were selected and harmonized throughout the samples using gene set variation transformation (GSVA). The resulting GSVA scores were plotted as a spider plot for pathway activity comparison among the groups.

[3] = system: advanced stage solid tumours; conditions: cited from earlier work

B1: Mitazalimab: agonistic, human monoclonal (IgG1) antibody targeting CD40 (antibody, chains of the INN, looked up, V domains shown)
VH: EVQLLESGGGLVQPGGSLRLSCAASGFTFSTYGMHWVRQAPGKGLEWLSYISGGSSYIFYADSVRGRFTISRDNSENALYLQMNSLRAEDTAVYYCARILRGGSGMDLWGQGTLVTVSS
VL: QSVLTQPPSASGTPGQRVTISCTGSSSNIGAGYNVYWYQQLPGTAPKLLIYGNINRPSGVPDRFSGSKSGTSASLAISGLRSEDEADYYCAAWDKSISGLVFGGGTKLTVL
In the case of B1, the AESIs ([1]; in vivo) is reported as “None”, the DLTs ([1]; in vivo) is reported as “G3 Headache” and the “DLTs, %” value ([1]; in vivo) is reported as “(9.1) %”. The “Discontinued treatment: Unacceptable toxicity, percentage of patients” value ([1]; in vivo) was “(11.6) %”, the “Discontinued treatment: Unacceptable toxicity, percentage relative to number discontinued” value ([1]; in vivo) was 15.4% and the “Grade 1 or 2 TEAEs, %” value ([1]; in vivo) was 81.8%. The “Grade 3 TEAEs, %” value ([1]; in vivo) was 36.4%, the “Mitazalimab Related Adverse Events: Grade 1 or 2 TEAEs, %” value ([1]; in vivo) was “(72.7) %” and the “Mitazalimab Related Adverse Events: Grade 3 TEAEs, %” value ([1]; in vivo) was “(9.1) %”. For the same molecule, the “Mitazalimab Related Adverse Events: patients with any TEAEs, %” value ([1]; in vivo) was “(72.7) %”, the “Mitazalimab-related Grade 1-2 Fatigue” value ([1]; in vivo) was 3 and the “Mitazalimab-related Grade 1-2 Fever or similar” value ([1]; in vivo) was 6. The “Mitazalimab-related Grade 3 Fatigue” value ([1]; in vivo) was 2, the “Mitazalimab-related Grade 3 Headache” value ([1]; in vivo) was 1 and the “Mitazalimab-related Grade 3 Hypokalemia” value ([1]; in vivo) was 1. For the same molecule, the “Patients with any TEAEs, %” value ([1]; in vivo) was 81.8%, the “Mitazalimab-related Grade 1-2 Flu/muscle ache” value ([1]; of 11 patients at 2 dose levels) was 5 and the “expression of genes involved in response to type-1 IFN and TLR signaling” value ([2]; alone or in combination with FOLFIRINOX) was “high expression”. For the same molecule, the “Differentially expressed genes, p. adj < 0.05” value ([2]; vs Folfirinox) was 3953, the “Differentially expressed genes, p. adj < 0.05 & FC > 2” value ([2]; vs Folfirinox) was 1717 and the “Differentially expressed genes, p. adj < 0.05” value ([2]; vs Mita-Folfirinox) was 453. For the same molecule, the “Differentially expressed genes, p. adj < 0.05 & FC > 2” value ([2]; vs Mita-Folfirinox) was 221, the “Differentially expressed genes, p. adj < 0.05” value ([2]; vs untreated) was 2114 and the “Differentially expressed genes, p. adj < 0.05 & FC > 2” value ([2]; vs untreated) was 849. For the same molecule, the “doses shown safe and well tolerated” value ([3]; Phase I study NCT02829099) was “up to 1200 μg/kg”, the “grade of most drug related adverse events” value ([3]; Phase I study NCT02829099) was “grade 1 or 2” and the “patients who experienced a DLT” value ([3]; headache 5 days, grade 3 liver enzyme with grade 2 bilirubin elevation) was “Two”. The MTD ([3]; human, in vivo, iv) was “No MTD was identified”, the “duration of SD in one of seven pancreatic cancer patients” value ([3]; in vivo) was “more than 6 months” and the response observed ([3]; patient with renal cell cancer, 1200 μg/kg) was “partial response (PR)”. For the same molecule, the “time on study of the patient with PR” value ([3]; renal cell cancer, 1200 μg/kg, fourteen cycles) was 9.2 months.
